In assay [1] the target is T1, HPT1 receptor domain (human intestinal peptide-associated transporter HPT1, amino acid residues 29-273), … (human, UniProt Q12864 29-273).
T1 construct: purified under denaturing conditions; also called recombinant HPT1; not shown: poly-histidine tag (pET vector) at the NH2-terminal end
T1 sequence: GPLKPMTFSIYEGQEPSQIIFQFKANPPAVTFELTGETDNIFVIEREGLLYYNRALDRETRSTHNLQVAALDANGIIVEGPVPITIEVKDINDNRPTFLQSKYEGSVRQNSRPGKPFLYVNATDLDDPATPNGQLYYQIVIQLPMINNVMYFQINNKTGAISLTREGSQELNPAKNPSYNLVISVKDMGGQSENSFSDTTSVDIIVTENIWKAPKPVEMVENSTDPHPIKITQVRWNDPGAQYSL
The assay is described as follows: phage ELISA, OD on HPT1 over OD on BSA. How it is done: (§1) 6.6. Receptor ELISA Procedure 96 well plates were coated overnight with GIT receptor, BSA and, optionally, IDE (insulin degrading enzyme, an irrelevant His-fusion protein)or hTF. The plates were blocked for one hour with 0.5% BSA-PBS. After clarification, the amplified phage were diluted 1:100 in […] plus 0.05% Tween 20 in PBS and added to the plates. Following incubation of the plates on a rotator for 1 to 2 hours, the plates were washed 5 times with 1% BSA plus 0.05% Tween 20 in PBS. […] After the plates were washed 5 times, as described above, TMB substrate was added to the wells. The plates were read at 650 nm absorbance.

Assay [2] concerns the target T1, HPT1 receptor domain (human intestinal …). The assay is described as follows: phage ELISA, plate coated with HPT1 domain. How it is done: as §1
The target of assay [3] is T2, D2H receptor domain (human D2H transporter, amino acid residues 387-685), His-tag fusion protein (human, UniProt Q07837 387-685).
T2 construct: purified under denaturing conditions; also called recombinant D2H; not shown: poly-histidine tag (pET vector) at the NH2-terminal end
T2 sequence: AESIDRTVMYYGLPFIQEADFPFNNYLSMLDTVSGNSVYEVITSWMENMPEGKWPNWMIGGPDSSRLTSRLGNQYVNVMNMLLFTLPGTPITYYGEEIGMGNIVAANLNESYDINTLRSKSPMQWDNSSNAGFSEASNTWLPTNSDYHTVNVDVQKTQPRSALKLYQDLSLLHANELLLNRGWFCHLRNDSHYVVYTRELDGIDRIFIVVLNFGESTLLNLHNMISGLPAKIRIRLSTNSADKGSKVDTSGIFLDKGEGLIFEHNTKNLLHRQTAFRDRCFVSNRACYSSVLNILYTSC
The experiment in a line: phage ELISA, OD on D2H over OD on BSA. How it is done: as §1
A general note: An ELISA detects its analyte on a solid surface through an enzyme-linked reagent.

In assay [4] the target is T2, D2H receptor domain (human D2H …). The experiment in a line: phage ELISA, plate coated with D2H domain. How it is done:
as §1

The target is the same in assay [5]. The experiment in a line: phage ELISA, OD on D2H over OD on BSA. Here is the method:
as §1
(§2) Binding to fixed Caco-2 cells, D2H and BSA was examined.
The source holds these as a separate data set.

For assay [6] the target is unchanged. The experiment in a line: phage ELISA, plate coated with D2H domain. How it is done: as §1, §2
This is another data set of the same source.

Where two headings read alike, the source gives them in different places.

The results in this text go back to US6703362 (CYTOGEN, dated 2004).

B1: HAX42 (peptide)
peptide: SDHALGTNLRSDNAKEPGDYNCCGNGNSTGRKVFNRRRPSAIPTAETVESCLAKPHTENSFTNVWKDDKTLDRYANYEGCLWNATGVVVCTGDETQCYGTWVPIGLAIPENEGGGSEGGGSEGGGSEGGGTKPPEYGDTPIPGYTYINPLDGTYPPGTEQNPANPNPSLEESQPLNTFMFQNNRFRNRQGALTVYTGTVTQGTDPVKTYYQYTPVSSKAMYDAYWNGKFRDCAFHSGFNEDPFVCEYQGQSSDLPQPPVNAGGGSGGGSGGGSEGGGSEGGGSEGGGSEGGGSGGGSGSGDFDYEKMANANKGAMTENADENALQSDAKGKLDSVATDYGAAIDGFIGDVSGLANGNGATGDFAGSNSQMAQVGDGDNSPLMNNFRQYLPSLPQSVECRPFVFSAGKPYEFSIDCDKINLFRGVFAFLLYVATFMYVFSTFANILRNKES
notes: Assayed as M13 phage clone displaying the insert
B1 returned an HPT/BSA in assay [1] of 5 ratio. The molecule also yielded an OD in assay [2] of 0.32 OD.

B2: DAB10 (peptide)
peptide: SKSGEGGDSSRGETGWARVRSHAMTAGRFRWYNQLPSDRAETVESCLAKPHTENSFTNVWKDDKTLDRYANYEGCLWNATGVVVCTGDETQCYGTWVPIGLAIPENEGGGSEGGGSEGGGSEGGGTKPPEYGDTPIPGYTYINPLDGTYPPGTEQNPANPNPSLEESQPLNTFMFQNNRFRNRQGALTVYTGTVTQGTDPVKTYYQYTPVSSKAMYDAYWNGKFRDCAFHSGFNEDPFVCEYQGQSSDLPQPPVNAGGGSGGGSGGGSEGGGSEGGGSEGGGSEGGGSGGGSGSGDFDYEKMANANKGAMTENADENALQSDAKGKLDSVATDYGAAIDGFIGDVSGLANGNGATGDFAGSNSQMAQVGDGDNSPLMNNFRQYLPSLPQSVECRPFVFSAGKPYEFSIDCDKINLFRGVFAFLLYVATFMYVFSTFANILRNKES
notes: as for B1
Regarding B2, the D2H/BSA in assay [3] amounted to 4 ratio. For the same molecule, the OD in assay [4] is 0.644 OD.

B3: DCX11 (peptide)
peptide: SQGSKQCMQYRTGRLTVGSEYGCGMNPARHATPAYPARLLPRYRAETVESCLAKPHTENSFTNVWKDDKTLDRYANYEGCLWNATGVVVCTGDETQCYGTWVPIGLAIPENEGGGSEGGGSEGGGSEGGGTKPPEYGDTPIPGYTYINPLDGTYPPGTEQNPANPNPSLEESQPLNTFMFQNNRFRNRQGALTVYTGTVTQGTDPVKTYYQYTPVSSKAMYDAYWNGKFRDCAFHSGFNEDPFVCEYQGQSSDLPQPPVNAGGGSGGGSGGGSEGGGSEGGGSEGGGSEGGGSGGGSGSGDFDYEKMANANKGAMTENADENALQSDAKGKLDSVATDYGAAIDGFIGDVSGLANGNGATGDFAGSNSQMAQVGDGDNSPLMNNFRQYLPSLPQSVECRPFVFSAGKPYEFSIDCDKINLFRGVFAFLLYVATFMYVFSTFANILRNKES
notes: as for B1
Molecule B3 returned a D2H/BSA in assay [5] of 3 ratio. The same molecule returned an OD in assay [6] of 0.222 OD.

B4: DAX23 (peptide)
peptide: REWRFAGPPLDLWAGPSLPSFNASSHPRALRTYWSQRPRAETVESCLAKPHTENSFTNVWKDDKTLDRYANYEGCLWNATGVVVCTGDETQCYGTWVPIGLAIPENEGGGSEGGGSEGGGSEGGGTKPPEYGDTPIPGYTYINPLDGTYPPGTEQNPANPNPSLEESQPLNTFMFQNNRFRNRQGALTVYTGTVTQGTDPVKTYYQYTPVSSKAMYDAYWNGKFRDCAFHSGFNEDPFVCEYQGQSSDLPQPPVNAGGGSGGGSGGGSEGGGSEGGGSEGGGSEGGGSGGGSGSGDFDYEKMANANKGAMTENADENALQSDAKGKLDSVATDYGAAIDGFIGDVSGLANGNGATGDFAGSNSQMAQVGDGDNSPLMNNFRQYLPSLPQSVECRPFVFSAGKPYEFSIDCDKINLFRGVFAFLLYVATFMYVFSTFANILRNKES
notes: as for B1
B4 registered a D2H/BSA in assay [3] of 5 ratio. Also, the OD in assay [4] amounted to 0.698 OD.

B5: DCX8 (peptide)
peptide: RYKHDIGCDAGVDKKSSSVRGGCGAHSSPPRAGRGPRGTMVSRLAETVESCLAKPHTENSFTNVWKDDKTLDRYANYEGCLWNATGVVVCTGDETQCYGTWVPIGLAIPENEGGGSEGGGSEGGGSEGGGTKPPEYGDTPIPGYTYINPLDGTYPPGTEQNPANPNPSLEESQPLNTFMFQNNRFRNRQGALTVYTGTVTQGTDPVKTYYQYTPVSSKAMYDAYWNGKFRDCAFHSGFNEDPFVCEYQGQSSDLPQPPVNAGGGSGGGSGGGSEGGGSEGGGSEGGGSEGGGSGGGSGSGDFDYEKMANANKGAMTENADENALQSDAKGKLDSVATDYGAAIDGFIGDVSGLANGNGATGDFAGSNSQMAQVGDGDNSPLMNNFRQYLPSLPQSVECRPFVFSAGKPYEFSIDCDKINLFRGVFAFLLYVATFMYVFSTFANILRNKES
notes: as for B1
Molecule B5 displayed a D2H/BSA in assay [5] of 3 ratio. This molecule yielded an OD in assay [6] of 0.163 OD.
